One may read the koff as the first-order rate constant of dissociation. In general, kon refers to the rate constant with which the complex forms. Low values mean slower complex formation, high ones faster complex formation. The Kd is the free concentration of one partner at which half of the binding sites on the other are occupied at equilibrium, for simple one-to-one binding. The low end stands for higher affinity, the high end for lower affinity.

Experimental findings from patent US20200181283A1 (AGENCY FOR SCIENCE TECHNOLOGY AND RESEARCH, published 2020) are described below.

Test [1] addresses T1, purified human PRL-3 (human, UniProt O75365 1-173, limits assumed).
T1 construct: Antigen of the KinExA analysis; also called PTP4A3; PRL-3 antigen
The test is described as follows: KinExA kinetic exclusion assay. For orientation: A kinetic exclusion assay measures how much of one partner remains free in solution.

In test [2] the target is T1, purified human PRL-3. Kind of test: KinExA kinetic exclusion assay, purified antibody and purified human PRL-3.

T1 sequence (O75365 whole entry): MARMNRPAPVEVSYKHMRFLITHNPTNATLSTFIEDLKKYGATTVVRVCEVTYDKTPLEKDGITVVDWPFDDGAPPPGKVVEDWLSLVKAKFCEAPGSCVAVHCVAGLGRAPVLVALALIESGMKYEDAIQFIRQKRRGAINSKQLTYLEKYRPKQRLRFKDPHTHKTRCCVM

B1: PRL3-zumab (antibody, V domains shown)
VH: QVQLVQSGAEVKKPGASVKVSCKASGYTFTNYYMHWVRQAPGQLEWMGWIYPGNVNTYYNEKFRGRVTITADTSASTAYMLSSLRSEDTAVYYCASEEKNYPWFAYWGQGTLVTS
VL: DTQLTQSPSSLSASVGDRVTICKASQSVEDDGENYMNWYQQKPGSPKLLIYAASNLESGIPARFSGSGSGTDFTLTISSLPEDFATYYCQQSNEDPFTFGSGTKLEIK
As to B1, in the test with purified human PRL-3 [1], the dissociation rate constant (koff) stood at 6.68e-05 s⁻¹ and the kon was 1.06e+07 M⁻¹ s⁻¹. In the test with purified human PRL-3 [2], this molecule had an equilibrium dissociation constant (Kd) of 6.29 pM.
